Assay results published in US6867027B1, “RNA polymerase” (The Institute of Physical and Chemical Research, priority 1997, dated 2005).
“Also recorded” adds a separate entry of the source.

What was measured:
[1] = Inhibition of [α-32P]UTP incorporation by 3′-dATP in the transcription reaction (3′-dNTP incorporation rate); assay type: biochemical; details: compared with wild type T7 RNA polymerase
Procedure: Ribonucleotide (NTP) and 3′-deoxynucleotide (3′-dNTP) incorporation rates of the mutant T7 RNA polymerase purified in Example 7 were measured as follows.
pBluescript(KS+) plasmid (Stratagene) linearized by reaction with a restriction endonuclease, PvuII, was used as a template for the transcription reaction, and 250 μM each of ATP, CTP, GTP, and UTP, 2 mM of spermidine-(HCl)3, 5 mM of DTT, 40 mM Tris/HCl pH 8.0, 0.1 μl of [α-^32P] UTP (3000 Ci/mmole), and 25 units of the mutant T7 RNA polymerase F644Y/L665P/F667Y were also used for the reaction. For two kinds of reaction mixture (with or without 3′-dATP, final concentration was 100 μM), the reaction was performed at 37° C. for 60 minutes. The whole reaction mixture was spotted on DE81 paper (Whatman), washed three times with phosphate buffer, and dried. The DE81 paper was placed into a scintillation vial, and radioactivity was measured using a scintillation counter (Beckman) for each reaction. Degree of inhibition of the [α-^32P] UTP incorporation was calculated by comparing the values obtained with and without 3′-dATP based on the measured radioactivity. The relative activity obtained from calculated inhibition degree and defined as a relative value to the inhibition degree of the wild type T7 RNA polymerase normalized to 1.000 was shown in Table 1.
The inhibition degree was calculated by using the wild type T7 RNA polymerase, T7 RNA polymerase F644Y, L665P/F667Y obtained in Example 3, mutant T7 RNA polymerase F644Y/L665P, F782Y, F733Y, F646Y or Y639F constructed and purified in the same manner as in Examples 2 and 3 for the reaction instead of the above F644Y/L665P/F667Y mutant, and relative activities are shown in Table 1.
For example, it is meant that the mutant T7 RNA polymerase F644Y/L665P/F667Y is 5.58 times more likely to incorporate 31-dATP in comparison with the wild type enzyme.

[2] = tested on: human thyroid-stimulating hormone (hTSH-β) cDNA PCR product; test: Transcriptional sequencing reaction on PCR product of hTSH-β cDNA (Example 9); assay type: biochemical; details: four dye terminators, PCR product template, FIG. 18
Procedure: As the template for PCR, human thyroid-stimulating hormone (hTSH-β) cDNA subcloned into a plasmid derived from BS750 having T7 promoter was used. By using this plasmid […] having hTSH-β with L220 primer (5′-TAACAATTTCACACAGGAAACA-3′ (SEQ ID NO:38)) and 1211 primer (5′-ACGTTGTAAAACGACGGCCAGT-3′ (SEQ ID NO:39)) existing at both sides of the cloning site, PCR reaction was performed in a reaction volume of 20 μl (1 cycle of 94° C. for 2 minutes, 30 cycles of 94° C. for 1 minute, 55° C. for 1 minute, and 72° C. for 1.5 minutes, followed by 72° C. for 5 minutes). The T7 promoter existed in the downstream of 1211 primer of the PCR product obtained from the above PCR reaction.
The transcriptional sequencing reaction was performed by the method of Melton, D. A, [Nucleic Acids Res., 12: 7035-7056 (1984)].
1 μl (about 10 ng) of the above PCR product was used for the sequencing reaction. […]
The dried reaction product was dissolved in 6 μl of formamide/EDTA/Blue dextran loading buffer according to the instruction manual Ver. 1.0 of ABI PRISM 377 DNA Sequencing System available from Perkin-Elmer Japan, and 2 μl of the solution was analyzed by ABI 377 DNA Sequencer and an analysis program (Sequencing Analysis Ver. 3.0) using denatured gel for sequencing analysis which contained 6M urea/4% Long Ranger™ acrylamide solution (FMC) to afford an electropherogram.

B1: F644Y/L665P/F667Y: mutant T7 RNA polymerase introduced with F644Y/L665P/F667Y mutations (protein)
chain: MNTINIAKNDFSDIELAAIPFNTLADHYGERLAREQLALEHESYEMGEARFRKMFERQLKAGEVADNAAAKPLITTLLPKMIARINDWFEEVKAKRGKRPTAFQFLQEIKPEAVAYITIKTTLACLTSADNTTVQAVASAIGRAIEDEARFGRIRDLEAKHFKKNVEEQLNKRVGHVYKKAFMQVVEADMLSKGLLGGEAWSSWHKEDSIHVGVRCIEMLIESTGMVSLHRQNAGVVGQDSETIELAPEYAEAIATRAGALAGISPMFQPCVVPPKPWTGITGGGYWANGRRPLALVRTHSKKALMRYEDVYMPEVYKAINIAQNTAWKINKKVLAVANVITKWKHCPVEDIPAIEREELPMKPEDIDMNPEALTAWKRAAAAVYRKDKARKSRRISLEFMLEQANKFANHKAIWFPYNMDWRGRVYAVSMFNPQGNDMTKGLLTLAKGKPIGKEGYYWLKIHGANCAGVDKVPFPERIKFIEENHENIMACAKSPLENTWWAEQDSPFCFLAFCFEYAGVQHHGLSYNCSLPLAFDGSCSGIQHFSAMLRDEVGGRAVNLLPSETVQDIYGIVAKKVNEILQADAINGTDNEVVTVTDENTGEISEKVKLGTKALAGQWLAYGVTRSVTKRSVMTLAYGSKEYGFRQQVLEDTIQPAIDSGKGPMYTQPNQAAGYMAKLIWESVSVTVVAAVEAMNWLKSAAKLLAAEVKDKKTGEILRKRCAVHWVTPDGFPVWQEYKKPIQTRLNLMFLGQFRLQPTINTNKDSEIDAHKQESGIAPNFVHSQDGSHLRKTVVWAHEKYGIESFALIHDSFGTIPADAANLFKAVRETMVDTYESCDVLADFYDQFADQLHESQLDKMPALPAKGNLNLRDILESDFAFA
- ability for incorporating 3′-dATP, 3′-dGTP, 3′-dCTP, 3′-dUTP and derivatives thereof [1]: the least bias for the 3′-dATP incorporation among the mutant enzymes prepared; also recorded: markedly improved
- sequencing analysis [2]: Excellent sequencing analysis was possible
